Key:
[1] = biological target: human plasma glycoproteins; assay: far-Western blot densitometry (ImageJ); conditions: human plasma; parent: est. 4.0; read off a plot
rat plasma glycoproteins = assay: far-Western blot densitometry (ImageJ); conditions: rat plasma; parent: est. 13; read off a plot
[2] = biological target: biotinylated Neu5Gcα2-3Gal disaccharide; assay: ELISA; conditions: 500 nM immobilized GST-SLBR, read off a plot
[3] = biological target: biotinylated Neu5Acα2-3Gal disaccharide; assay: ELISA; conditions: 500 nM immobilized GST-SLBR, read off a plot
[4] = biological target: human plasma glycoproteins; assay: far-Western, overlay or dot blot; human or rat plasma diluted 1:10, boiled with LDS sample buffer and 50 mM DTT, separated on 3 to 8% polyacrylamide gradient gels, transferred to BioTraceNT; GST-SLBR 5 nM in DPBS with 1x Blocking Reagent, 90 min, room temperature; detected with anti-GST; in duplicate
[5] = 1 μg/ml biotinylated disaccharide, parent: est. 0.18
[6] = highest ligand concentration point, about 5 μg/ml biotinylated disaccharide, parent: est. 0.41
[7] = 1 μg/ml biotinylated disaccharide, parent: est. 0.16
[8] = highest ligand concentration point, about 5 μg/ml biotinylated disaccharide, parent: est. 0.31

“GST-tagged SLBR_(SrpA) (Siglec-like binding region of the serine-rich repeat adhesin SrpA, Streptococcus sanguinis strain SK36), wild type (from UniProt A3CM52) Y368F” gave a response (Signal Intensity (x1000)) [1] of 0.2, a response (Signal Intensity (x1000)) (rat plasma glycoproteins) of 15 and a response [2, 5] of 0.62 A450. It also gave a response [2, 6] of 0.99 A450, a response [3, 7] of 0.26 A450 and a response [3, 8] of 0.54 A450.

“GST-tagged SLBRHsa V370F (domain or fragment)” gave a fold decrease in total binding against wild-type SLBRHsa [4] of 3 fold.

Substance “GST-tagged SLBR_(SrpA) (Siglec-like binding region of the serine-rich repeat adhesin SrpA, Streptococcus sanguinis strain SK36), wild type (from UniProt A3CM52) Y368I” has a response (Signal Intensity (x1000)) [1] of 0, a response (Signal Intensity (x1000)) (rat plasma glycoproteins) of 19 and a response [2, 5] of 0.81 A450. For the same substance, the response [2, 6] was 1.1 A450, the response [3, 7] was 0.16 A450 and the response [3, 8] was 0.32 A450.

“GST-tagged SLBR_(SrpA) (Siglec-like binding region of the serine-rich repeat adhesin SrpA, Streptococcus sanguinis strain SK36), wild type (from UniProt A3CM52) Y368V” was tested, and the response (Signal Intensity (x1000)) [1] was 0, the response (Signal Intensity (x1000)) (rat plasma glycoproteins) was 18 and the response [2, 5] was 0.62 A450. It also gave a response [2, 6] of 0.98 A450, a response [3, 7] of 0.12 A450 and a response [3, 8] of 0.21 A450.
